From publication PMC11695829, “DSIF factor Spt5 coordinates transcription, maturation and exoribonucleolysis of RNA polymerase II transcripts” (Nature Communications, 2025)
Values belong to the binder of their own block, whether it stands above or below them.

Columns and labels:
[1] = target: T1, Full-length Spt4/5 heterodimer (DSIF) (S. pombe, UniProt O13936 1-990; Q9P7K8 1-105); test: pull-down; Rai1 immobilised on beads and challenged with Xrn2 or Xrn2/Spt4/5; no Pol II; details: both partners purified
T1 construct: Spt5 of S. pombe, full length; Spt4 of S. pombe, full length; Co-expressed heterodimer, used as one preformed complex in all in vitro experiments; Only the Kow5 domain of Spt5 is seen in the cryo-EM map; also called Spt5-Spt4; Spt5
T1 sequence (looked up) 1: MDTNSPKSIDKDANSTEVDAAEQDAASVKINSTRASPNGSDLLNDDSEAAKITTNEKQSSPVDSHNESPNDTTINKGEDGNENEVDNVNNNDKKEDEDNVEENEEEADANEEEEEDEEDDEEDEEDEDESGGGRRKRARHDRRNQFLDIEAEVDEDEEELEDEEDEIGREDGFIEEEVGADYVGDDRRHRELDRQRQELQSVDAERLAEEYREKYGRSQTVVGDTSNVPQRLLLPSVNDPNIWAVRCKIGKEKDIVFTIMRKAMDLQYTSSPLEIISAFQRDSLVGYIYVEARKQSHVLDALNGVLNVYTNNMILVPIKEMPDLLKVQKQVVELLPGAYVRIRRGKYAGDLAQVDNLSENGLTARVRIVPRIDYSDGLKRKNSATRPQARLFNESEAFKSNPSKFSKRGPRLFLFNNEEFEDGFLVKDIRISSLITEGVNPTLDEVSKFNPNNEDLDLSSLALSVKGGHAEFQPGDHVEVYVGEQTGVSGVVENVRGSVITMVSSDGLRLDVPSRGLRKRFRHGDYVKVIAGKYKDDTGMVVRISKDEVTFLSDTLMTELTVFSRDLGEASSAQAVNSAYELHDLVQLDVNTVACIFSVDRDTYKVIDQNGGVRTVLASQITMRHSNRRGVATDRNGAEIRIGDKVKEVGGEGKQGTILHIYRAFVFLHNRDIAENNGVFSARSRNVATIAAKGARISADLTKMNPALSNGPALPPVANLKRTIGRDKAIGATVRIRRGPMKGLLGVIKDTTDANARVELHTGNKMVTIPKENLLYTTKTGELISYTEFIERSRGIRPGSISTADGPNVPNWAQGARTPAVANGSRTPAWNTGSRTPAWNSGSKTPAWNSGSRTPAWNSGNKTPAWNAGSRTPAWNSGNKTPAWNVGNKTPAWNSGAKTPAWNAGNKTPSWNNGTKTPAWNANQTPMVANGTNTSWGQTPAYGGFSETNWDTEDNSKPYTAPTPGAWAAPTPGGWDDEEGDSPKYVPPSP
T1 sequence (looked up) 2: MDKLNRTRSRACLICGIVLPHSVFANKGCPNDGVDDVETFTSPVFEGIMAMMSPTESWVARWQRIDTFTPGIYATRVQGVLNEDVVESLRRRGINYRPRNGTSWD

[2] = target: C-terminally truncated Xrn2 (residues 1–885), WT (S. pombe)

binding result [1]: binds
B1: full-length Rai1 Strep-tagged (natural protein, S. pombe, UniProt O13836 1-352, looked up)
chain: MLREFSFYDVPPAHVPPVSEPLEIACYSLSRDRELLLDDSKLSYYYPPPLFSDLNTGFPNRFHPPKSDPDPISIVKDVLMTKGIQMNSSFLTWRGLITKIMCAPLDPRNHWETYLVMDPTSGIIMMEERTRSETSYANQDRMCYWGYKFEAISTLPEIWDACSRDQIEQRDNQDVVPDEQYCSIVKINIGKSKLILAGEVDCIWDKKPCSAKESDVHSDDGTIEEDASNAENPNLHYVELKTSKKYPLENYGMRKKLLKYWAQSFLLGIGRIIIGFRDDNGILIEMKELFTHQIPKMLRPYFKPNDWTPNRLLVVLEHALEWIKQTVKQHPPSTEFTLSYTGGSKLVLRQII
notes: source: Rosetta E. coli, purified (StrepTrap HP, Superdex 200)

half-life of normalised anisotropy (a proxy for substrate half-life) in the degradation of P-RNA-FAM by Xrn2, fluorescence anisotropy; decrease in the presence of Kow5-sCTR [2]: 3 fold
B2: Kow5-sCTR (Spt5 region 720 to 874 aa, N-terminal His-tag) (domain or fragment)
chain: LKRTIGRDKAIGATVRIRRGPMKGLLGVIKDTTDANARVELHTGNKMVTIPKENLLYTTKTGELISYTEFIERSRGIRPGSISTADGPNVPNWAQGARTPAVANGSRTPAWNTGSRTPAWNSGSKTPAWNSGSRTPAWNSGNKTPAWNAGSRTPA
